Where two headings read alike, the source gives them in different places.

The record followed here is patent US20070134256A1 (US Dept. of Health and Human Services, published 2007).

Assay [1] addresses DENV-2 NGB-V1/DENV-4 chimera (dengue type 2 virus). The assay is described as follows: cell-based or functional assay.
Assay [2] deals with T1, DENV-4 mutant containing Leu107Phe (dengue type 4 virus, UniProt P09866 280-774). In words: cell-based or functional assay.
Assay [3] concerns the target T2, DENV-2 antigenic variant NGB-V1 (dengue type 2 virus). The assay is described as follows: cell-based or functional assay.
Assay [4] addresses DENV-2 New Guinea C (NGC) parent virus, mouse-adapted (dengue type 2 virus, UniProt P14340 281-775). In words: cell-based or functional assay.
A further assay has as its target WNV/DENV-4 chimera (West Nile virus). The assay is described as follows: cell-based or functional assay.
The target in assay [5] is T3, dengue type 4 virus (DENV-4), strain 814669, virions (dengue type 4 virus, UniProt P09866 280-774; P09866 114-279). The assay is described as follows: cell-based or functional assay.
In assay [6] the target is DENV-2 NGB-V2/DENV-4 chimera (dengue type 2 virus). In words: cell-based or functional assay.
Assay [7] has as its target T4, DENV-2 antigenic variant NGB-V2 (dengue type 2 virus). In words: cell-based or functional assay.
Assay [8] has as its target chimeric DENV-2 (NGB-P)/DENV-4 (dengue type 2 virus). In words: cell-based or functional assay.
The target in assay [9] is T5, dengue type 3 virus (DENV-3), strain H87, virions (dengue type 3 virus, UniProt P27915 281-773; P27915 115-280). The assay is described as follows: ELISA, virion-coated plate, Fab from ~140 µg/ml. For orientation: ELISA stands for enzyme-linked immunosorbent assay.
Assay [10] addresses T3, dengue type 4 virus (DENV-4), strain …. In words: ELISA, virion-coated plate, Fab from ~140 µg/ml.
The target of assay [11] is T6, dengue type 2 virus (DENV-2), prototype New Guinea C strain, virions (dengue type 2 virus, UniProt P14340 281-775; P14340 115-280). The assay is described as follows: ELISA, virion-coated plate, Fab from ~140 µg/ml.
Assay [12] concerns the target T7, dengue type 1 virus (DENV-1), Western Pacific strain, virions (dengue type 1 virus, UniProt P17763 281-775; P17763 115-280). In words: ELISA, virion-coated plate, Fab from ~140 µg/ml.
In assay [13] the target is T2, DENV-2 antigenic variant NGB-V1.
The target of assay [14] is T4, DENV-2 antigenic variant NGB-V2.
In assay [15] the target is T2, DENV-2 antigenic variant NGB-V1. In words: ELISA Kd against parental DENV-2 NGB.
The target in assay [16] is T4, DENV-2 antigenic variant NGB-V2. The assay is described as follows: ELISA Kd against parental DENV-2 NGB.
Assay [17] has as its target T1, DENV-4 mutant containing Leu107Phe. In words: ELISA Kd.
The target of assay [18] is T3, dengue type 4 virus (DENV-4), strain …. In words: ELISA Kd.
Assay [19] has as its target T5, dengue type 3 virus (DENV-3), strain …. The assay is described as follows: cell-based or functional assay.
Assay [20] deals with T3, dengue type 4 virus (DENV-4), strain …. In words: cell-based or functional assay. This is another data set of the same source.
In assay [21] the target is T6, dengue type 2 virus (DENV-2), prototype …. The assay is described as follows: cell-based or functional assay.
Assay [22] addresses T7, dengue type 1 virus (DENV-1), Western …. In words: cell-based or functional assay.
Assay [23] deals with T5, dengue type 3 virus (DENV-3), strain …. In words: cell-based or functional assay. This is another data set of the same source.
Assay [24] addresses T8, Langat virus (LGTV) strain TP 21 (Langat virus, UniProt P29837 281-776).
T8 sequence: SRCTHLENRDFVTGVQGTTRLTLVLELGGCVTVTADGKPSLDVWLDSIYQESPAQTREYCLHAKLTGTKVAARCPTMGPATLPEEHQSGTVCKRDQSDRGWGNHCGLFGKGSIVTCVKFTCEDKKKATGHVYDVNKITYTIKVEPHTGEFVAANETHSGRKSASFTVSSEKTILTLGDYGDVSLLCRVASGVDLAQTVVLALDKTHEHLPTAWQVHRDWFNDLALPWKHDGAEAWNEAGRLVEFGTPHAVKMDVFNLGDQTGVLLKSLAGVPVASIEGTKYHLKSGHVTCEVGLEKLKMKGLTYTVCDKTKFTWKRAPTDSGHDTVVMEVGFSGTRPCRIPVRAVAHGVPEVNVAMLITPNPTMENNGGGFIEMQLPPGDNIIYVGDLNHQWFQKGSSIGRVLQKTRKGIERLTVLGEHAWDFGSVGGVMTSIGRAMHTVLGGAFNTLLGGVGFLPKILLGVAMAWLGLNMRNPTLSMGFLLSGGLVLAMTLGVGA
In words: cell-based or functional assay.

Assay [25] has as its target Japanese encephalitis virus (JEV) vaccine strain SA14-14-2 (Japanese encephalitis virus). The assay is described as follows: cell-based or functional assay.
A further assay concerns the target DENV-1 strain Hawaii (dengue type 1 virus). The assay is described as follows: cell-based or functional assay.
Assay [26] has as its target DENV-2 New Guinea B (NGB) parent virus (dengue type 2 virus). The assay is described as follows: cell-based or functional assay.
The target of assay [27] is T5, dengue type 3 virus (DENV-3), strain ….
The target in assay [28] is T3, dengue type 4 virus (DENV-4), strain ….
The target of assay [29] is T6, dengue type 2 virus (DENV-2), prototype ….
The target of assay [30] is T7, dengue type 1 virus (DENV-1), Western ….
Assay [31] addresses T5, dengue type 3 virus (DENV-3), strain …. The assay is described as follows: ELISA, virion-coated plate, Fab from ~300 µg/ml.
Assay [32] deals with T3, dengue type 4 virus (DENV-4), strain …. The assay is described as follows: ELISA, virion-coated plate, Fab from ~300 µg/ml.
Assay [33] concerns the target T6, dengue type 2 virus (DENV-2), prototype …. The assay is described as follows: ELISA, virion-coated plate, Fab from ~300 µg/ml.
In assay [34] the target is T7, dengue type 1 virus (DENV-1), Western …. The assay is described as follows: ELISA, virion-coated plate, Fab from ~300 µg/ml.
The target of assay [35] is T9, DENV-4 E glycoprotein (dengue type 4 virus, UniProt P09866 280-774).
T9 construct: also called vDENV-4 E product
The assay is described as follows: radioimmunoprecipitation.

The target of assay [36] is T3, dengue type 4 virus (DENV-4), strain …. In words: cell-based or functional assay. The source holds these as a separate data set.
In assay [37] the target is T9, DENV-4 E glycoprotein. The assay is described as follows: radioimmunoprecipitation of E expressed alone by recombinant vaccinia virus.
Assay [38] has as its target T5, dengue type 3 virus (DENV-3), strain …. The assay is described as follows: ELISA, virion-coated plate.
For assay [39], the target named is T6, dengue type 2 virus (DENV-2), prototype …. In words: ELISA, virion-coated plate.
Assay [40] addresses T7, dengue type 1 virus (DENV-1), Western …. In words: ELISA, virion-coated plate.

B1: chimpanzee Fab 1A5 (Fab, V domains shown)
VH: EVQLLESGGGLVQPGGSRRLSCAASGFTISDNVMHWVRQAPGKGLEWVALIYSADTTHYADSVKGRFTISRDNSKNTLYLQMDSLRPEDTAVYYCAREYCTGDTCFAHFDYWGQGTLVSVSS
VL: ELQMTQSPSSVSASVGDTVTIACRASQSITNYLSWYQQKPGKAPKLLIYHASTLQSGIPSRFSGSGSGTDFTLTISSLQPDDFATYYCHYGYGTHTFGQGTKLEIKR
For orientation: Kd means a measure of binding affinity in units of concentration. Low values mean higher affinity, high ones lower affinity. Turning to B1, the PRNT50 titer was 31.7 µg/mL in assay [1]; ~50 µg/mL in assay [2]; 12 µg/mL in assay [3]; 0.89 µg/mL in assay [4]; 4.8 µg/mL with WNV/DENV-4 chimera; 4.3 µg/mL in assay [5]. In addition, the PRNT50 titer in [6] is > 70 µg/mL; in assay [7], > 70 µg/mL; in [8], 0.64 µg/mL; in [19] it was 3.49 µg/mL; in assay [20], 4.23 µg/mL; in assay [21], 0.77 µg/mL. In addition, the “PRNT50 titer” value in assay [22] was found to be 0.49 µg/mL. Moreover, the “ELISA titer of Fab binding” value in assay [9] is 3.8 log10 of reciprocal dilution; in assay [10] it was 3.8 log10 of reciprocal dilution; in assay [11] it was 3.8 log10 of reciprocal dilution; in [12], 4.1 log10 of reciprocal dilution. The dissociation constant Kd in assay [13] was found to be 0.75 nM; in assay [14], 37.8 nM; in assay [17], 3.07 nM; in assay [18] it was 0.65 nM. For the same molecule, the “Affinity Reduction (fold)” value was 1.6 fold in [15] and 80.3 fold in assay [16].

B2: humanized IgG1 1A5 (antibody, V domains shown)
VH: EVQLLESGGGLVQPGGSRRLSCAASGFTISDNVMHWVRQAPGKGLEWVALIYSADTTHYADSVKGRFTISRDNSKNTLYLQMDSLRPEDTAVYYCAREYCTGDTCFAHFDYWGQGTLVSVSS
VL: ELQMTQSPSSVSASVGDTVTIACRASQSITNYLSWYQQKPGKAPKLLIYHASTLQSGIPSRFSGSGSGTDFTLTISSLQPDDFATYYCHYGYGTHTFGQGTKLEIKR
Consider B2, for which the PRNT50 titer was 3.2 µg/mL in [23]; ~3.8 µg/mL with WNV/DENV-4 chimera; 4.3 µg/mL in assay [5]; 28 µg/mL in assay [24]; 21 µg/mL in assay [25]; 0.48 µg/mL in the assay with DENV-1 strain Hawaii. In addition, the PRNT50 titer in [26] stood at 0.95 µg/mL. For the same molecule, the equilibrium dissociation constant (Kd) in [27] came out at 0.67 nM; in [28], 0.82 nM; in [29] it was 0.6 nM; in assay [30], 0.5 nM.

B3: chimpanzee Fab 5A7 (Fab, V domains shown)
VH: EVQLLESGGGLVQPGGSLRLSCAASGVTFSSYWMHWVRQAPGKGLEWVSRINSDGSSTNYADSVEGRFTISRDNAKNTLYLQMNSLRAEDTAVYYCSRGGLWDWSPRRIEETKTPFDYWGQGTLVTVSS
VL: ELTQGPATLSLSPGERATLSCRAGQSLDSSLLSWYQQKPGQAPRLLMYDASTRAPGVPARFSGSGSGTDFTLTISSLQPEDFAVYYCQQHYNLPRTFGQGTKLEIKR
For B3, the “ELISA titer of Fab binding” value was 2.51 log10 of reciprocal dilution in [31], 3.41 log10 of reciprocal dilution in assay [32], 2.51 log10 of reciprocal dilution in [33] and 2.51 log10 of reciprocal dilution in assay [34]. Besides, in the assay with DENV-4 E glycoprotein [35], the binding result is listed as “no binding”. Besides, the “PRNT50 titer” value in assay [36] was > 200 µg/mL.

B4: chimpanzee Fab 5H2 (Fab, V domains shown)
VH: EVQLLESGPGLVKPSETLSLTCTVSGGSISDFYWSWLRQSPGKGLEWIGYAHSRVSAYYNPSLKSRVTISVDTSKNQLSLRLSAVTAADTALYYCARQGTGTTGVSEDPFDLWGQGTKVIVSL
VL: ELQMTQSPSSLSASVGDRVTITCRASQDISIRLNWYQQKPGKAPKLLIYDASTLESGVPSRFSGSGSGTDFTLTISSLQPEDFATYYCQQFNSYPLTFGGGTKVEIKR
Turning to B4, the “ELISA titer of Fab binding” value in [31], in [33], in assay [34], in assay [9], in assay [11] and in [12] was < 1 log10 of reciprocal dilution throughout. In addition, the binding result was “binds” in the assay with DENV-4 E glycoprotein [37], “no binding” in [38], “no binding” in [39] and “no binding” in [40].
